In paper PMC8481289, “Structural basis for UFM1 transfer from UBA5 to UFC1” (Nature Communications, 2021):

B3: UFC1 (WT) (enzyme, human)
chain: MADEATRRVVSEIPVLKTNAGPRDRELWVQRLKEEYQSLIRYVENNKNADNDWFRLESNKEGTRWFGKCWYIHDLLKYEFDIEFDIPITYPTTAPEIAVPELDGKTAKMYRGGKICLTDHFKPLWARNVPKFGLAHLMALGLGPWLAVEIPDLIQKGVIQHKEKCNQ
notes: UFC1, the E2 of UFM1; active site C116; 15N-labelled (M9 medium with 15NH4Cl) for the NMR titrations; In the two crystal structures UFC1 stood as part of a fusion chain; also called E2

Key:
Details in all cases: both partners purified
[1] = molecular target: B3; test: crystal structure; UBA5(347-404) fused to the N-terminus of UFC1; 2.65 Å; the UBS binds the UFC1 of a molecule of another asymmetric unit; 2% tacsimate pH 7.0, 20% PEG 3350, 0.1 M HEPES pH 7.5, 6 mM zinc sulfate, 20 °C
[2] = molecular target: B3; test: ITC; UFC1 titrated into the UBA5 construct (heat per mole of UFC1); MicroCal PEAQ ITC, 25 °C; 20 mM Tris pH 7.5, 50 mM NaCl, 2 mM DTT; 19 injections of 2 μl; fitted to the two sets of sites model
[3] = molecular target: T1, UBA5 Y372A (human, UniProt Q9GZZ9 1-404, Y372A); test: as above
T1 construct: UBA5, human, point mutant in the linker between UIS and UBS

[4] = molecular target: T2, UBA5 WT (human, UniProt Q9GZZ9 1-404); test: cross-linking; disulfide trapping: DPDS-activated UFC1-NC (4 μM) mixed with 2 μM UBA5 (WT or mutants) in PBS, 25 °C, 20 min; non-reducing SDS-PAGE, Coomassie
T2 construct: UBA5, human; active site C250; also called E1

[5] = molecular target: T3, UBA5 double mutant C250A and A371C (human, UniProt Q9GZZ9 1-404, C250A | A371C); test: as above
T3 construct: UBA5, human, active site Cys removed and a Cys placed in the linker

[6] = molecular target: B3; test: crystal structure; UBA5(389-404) fused to the C-terminus of UFC1; 2.4 Å; the UBS binds the UFC1 of a fusion molecule of another asymmetric unit; 35 mM citric acid, 65 mM bis-tris propane, 19% PEG3350, 100 mM LiCl, 20 °C

B1: UBA5(347–404) (domain or fragment, human, UniProt Q9GZZ9 347-404, looked up)
chain: SEVSEEELKNFSGPVPDLPEGITVAYTIPKKQEDSVTELTVEDSGESLEDLMAKMKNM
notes: In the crystal structure 7NVK the same stretch stood fused to the N-terminus of UFC1
Question: Does B1 bind [1]?
Answer: Result: binds

B2: UBA5(Δ349-389) (enzyme, human)
chain: MAESVERLQQRVQELERELAQERSLQVPRSGDGGGGRVRIEKMSSEVVDSNPYSRLMALKRMGIVSDYEKIRTFAVAIVGVGGVGSVTAEMLTRCGIGKLLLFDYDKVELANMNRLFFQPHQAGLSKVQAAEHTLRNINPDVLFEVHNYNITTVENFQHFMDRISNGGLEEGKPVDLVLSCVDNFEARMTINTACNELGQTWMESGVSENAVSGHIQLIIPGESACFACAPPLVVAANIDEKTLKREGVCAASLPTTMGVVAGILVQNVLKFLLNFGTVSFYLGYNAMQDFFPTMSMKPNPQCDDRNCRKQQEEYKKKVAALPKQEVIQEEEEIIHEDNEWGIELVSEGSGSGESLEDLMAKMKNM
notes: UBA5, human, up to residue 348; UBA5, human, from residue 390 to the C-terminus (holds the UBS); Linker between UIS and UBS removed, UBS kept
Question: B2 was tested. Which Kd [2] did it give?
Answer: Its Kd is 5.5 µM.

Question: Does B3 bind [3]?
Answer: Result: binds

B4: UFC1-NC (enzyme, human)
chain: MADEATRRVVSEIPVLKTNAGPRDRELWVQRLKEEYQSLIRYVENNKNADNDWFRLESNKEGTRWFGKSWYIHDLLKYEFDIEFDIPITYPTTAPEIAVPELDGKTAKMYRGGKICLTDHFKPLWARNVPKFGLAHLMALGLGPWLAVEIPDLIQKGVIQHKEKSNQ
modifications: activated with the crosslinker 2,2' dithiodipyridyldisulfide (DPDS); only the active site C116 is left
notes: UFC1 with C69 and C165 mutated to serine, leaving only the active site C116
Question: Does B4 bind [4]?
Answer: Result: binds

Question: Does B4 bind [5]?
Answer: Result: binds

B5: UBA5 (389-404) (domain or fragment, human, UniProt Q9GZZ9 389-404, looked up)
chain: DSGESLEDLMAKMKNM
notes: UBA5, human, residues 389-404 (holds the UBS); Never stood alone: it was fused to the C-terminus of UFC1 for the crystal structure; also called UBS; source: E. coli T7 express, purified, as part of the fusion UFC1-UBA5(389-404)
Question: Does B5 bind [6]?
Answer: Result: binds
